Biological target: the molecule itself
Assay: SEC; Superdex 75, 200 μl of 20-40 μM protein, 150 mM NaCl, 10 mM sodium phosphate, 0.03% NaN3, pH 7.4, 0.5 ml/min

B1: EK2 de novo polypeptide (AEEAKKA repeats) (other)
chain: SAEEAKKAAEEAKKAAEEAKKAAEEAKKAAEEAKKAAEEAKKAAEEAKKAAEEAKKAAEEAKKAAEEAKKAAEEAKKAAEEAKKAAEEAKKAAEEAKW
  stoichiometry N: ~2

From publication PMC5347031, “Characterization of long and stable de novo single alpha-helix domains provides novel insight into their stability” (Scientific Reports, 2017)
